Laboratory results published in publication PMC7064540.

B1: Gpr176: N-ter mut (protein)
parent chain: MGHNSSWVSPNTSHPRNTSGAEAGANLSAFGELSEAQLYRQFTTTVQVVIFIGSLLGNFMVLWSTCRTTVFKSVTNRFIKNLACSGICASVVCVPFDIILSSSPHCCWWIYTMLFCKVLKFLHKVFCSVTVLSFPAIALDRYYSVLYPLERKISDAKSRELVMYIWAHAVVASVPVFAVTNVADIYAMSTCTEVWSNSLGHLVYVLIYNVTTVIVPVAVVFLFLILIRRALSASQKKKVIIAALRTPQNTISIPYASQREAELHATLLSMVTVFILCSVPYATLVVYQTVLNVPNTSVFLLLTAIWLPKVSLLANPVLFLTVNKSVRKCLVGTLVQLHHRYSRRNVVSTGSGVAEPSLEPSMRSGSQLLEMFHIGQQQIFKPSEDEEESEAKYLGSADFQAKEVLTSCPEGEQEPPQLAPSVPPPGTVDSEPRVSPVAPMESGIFPDKYSLQFGFGPFELPPQWLSETRNSKKRLLPPLGNTPEELIQTKVPRVNRVERKMSRNNKVSIFPKVDS
B2: Gpr176: N-ter/ECL3 (protein)
parent chain: MGHNSSWVSPNTSHPRNTSGAEAGANLSAFGELSEAQLYRQFTTTVQVVIFIGSLLGNFMVLWSTCRTTVFKSVTNRFIKNLACSGICASVVCVPFDIILSSSPHCCWWIYTMLFCKVLKFLHKVFCSVTVLSFPAIALDRYYSVLYPLERKISDAKSRELVMYIWAHAVVASVPVFAVTNVADIYAMSTCTEVWSNSLGHLVYVLIYNVTTVIVPVAVVFLFLILIRRALSASQKKKVIIAALRTPQNTISIPYASQREAELHATLLSMVTVFILCSVPYATLVVYQTVLNVPNTSVFLLLTAIWLPKVSLLANPVLFLTVNKSVRKCLVGTLVQLHHRYSRRNVVSTGSGVAEPSLEPSMRSGSQLLEMFHIGQQQIFKPSEDEEESEAKYLGSADFQAKEVLTSCPEGEQEPPQLAPSVPPPGTVDSEPRVSPVAPMESGIFPDKYSLQFGFGPFELPPQWLSETRNSKKRLLPPLGNTPEELIQTKVPRVNRVERKMSRNNKVSIFPKVDS
B3: Gpr176: PNGase F (protein)
parent chain: MGHNSSWVSPNTSHPRNTSGAEAGANLSAFGELSEAQLYRQFTTTVQVVIFIGSLLGNFMVLWSTCRTTVFKSVTNRFIKNLACSGICASVVCVPFDIILSSSPHCCWWIYTMLFCKVLKFLHKVFCSVTVLSFPAIALDRYYSVLYPLERKISDAKSRELVMYIWAHAVVASVPVFAVTNVADIYAMSTCTEVWSNSLGHLVYVLIYNVTTVIVPVAVVFLFLILIRRALSASQKKKVIIAALRTPQNTISIPYASQREAELHATLLSMVTVFILCSVPYATLVVYQTVLNVPNTSVFLLLTAIWLPKVSLLANPVLFLTVNKSVRKCLVGTLVQLHHRYSRRNVVSTGSGVAEPSLEPSMRSGSQLLEMFHIGQQQIFKPSEDEEESEAKYLGSADFQAKEVLTSCPEGEQEPPQLAPSVPPPGTVDSEPRVSPVAPMESGIFPDKYSLQFGFGPFELPPQWLSETRNSKKRLLPPLGNTPEELIQTKVPRVNRVERKMSRNNKVSIFPKVDS
B4: hGPR176: N-ter mut (N4Q;N11Q;N17Q;N27Q) (protein)
parent chain: MGHNGSWISPNASEPHNASGAEAAGVNRSALGEFGEAQLYRQFTTTVQVVIFIGSLLGNFMVLWSTCRTTVFKSVTNRFIKNLACSGICASLVCVPFDIILSTSPHCCWWIYTMLFCKVVKFLHKVFCSVTILSFPAIALDRYYSVLYPLERKISDAKSRELVMYIWAHAVVASVPVFAVTNVADIYATSTCTEVWSNSLGHLVYVLVYNITTVIVPVVVVFLFLILIRRALSASQKKKVIIAALRTPQNTISIPYASQREAELHATLLSMVMVFILCSVPYATLVVYQTVLNVPDTSVFLLLTAVWLPKVSLLANPVLFLTVNKSVRKCLIGTLVQLHHRYSRRNVVSTGSGMAEASLEPSIRSGSQLLEMFHIGQQQIFKPTEDEEESEAKYIGSADFQAKEIFSTCLEGEQGPQFAPSAPPLSTVDSVSQVAPAAPVEPETFPDKYSLQFGFGPFELPPQWLSETRNSKKRLLPPLGNTPEELIQTKVPKVGRVERKMSRNNKVSIFPKVDS
B5: hGPR176: N4S (protein)
parent chain: MGHNGSWISPNASEPHNASGAEAAGVNRSALGEFGEAQLYRQFTTTVQVVIFIGSLLGNFMVLWSTCRTTVFKSVTNRFIKNLACSGICASLVCVPFDIILSTSPHCCWWIYTMLFCKVVKFLHKVFCSVTILSFPAIALDRYYSVLYPLERKISDAKSRELVMYIWAHAVVASVPVFAVTNVADIYATSTCTEVWSNSLGHLVYVLVYNITTVIVPVVVVFLFLILIRRALSASQKKKVIIAALRTPQNTISIPYASQREAELHATLLSMVMVFILCSVPYATLVVYQTVLNVPDTSVFLLLTAVWLPKVSLLANPVLFLTVNKSVRKCLIGTLVQLHHRYSRRNVVSTGSGMAEASLEPSIRSGSQLLEMFHIGQQQIFKPTEDEEESEAKYIGSADFQAKEIFSTCLEGEQGPQFAPSAPPLSTVDSVSQVAPAAPVEPETFPDKYSLQFGFGPFELPPQWLSETRNSKKRLLPPLGNTPEELIQTKVPKVGRVERKMSRNNKVSIFPKVDS
B6: hGPR176: N17K (protein)
parent chain: MGHNGSWISPNASEPHNASGAEAAGVNRSALGEFGEAQLYRQFTTTVQVVIFIGSLLGNFMVLWSTCRTTVFKSVTNRFIKNLACSGICASLVCVPFDIILSTSPHCCWWIYTMLFCKVVKFLHKVFCSVTILSFPAIALDRYYSVLYPLERKISDAKSRELVMYIWAHAVVASVPVFAVTNVADIYATSTCTEVWSNSLGHLVYVLVYNITTVIVPVVVVFLFLILIRRALSASQKKKVIIAALRTPQNTISIPYASQREAELHATLLSMVMVFILCSVPYATLVVYQTVLNVPDTSVFLLLTAVWLPKVSLLANPVLFLTVNKSVRKCLIGTLVQLHHRYSRRNVVSTGSGMAEASLEPSIRSGSQLLEMFHIGQQQIFKPTEDEEESEAKYIGSADFQAKEIFSTCLEGEQGPQFAPSAPPLSTVDSVSQVAPAAPVEPETFPDKYSLQFGFGPFELPPQWLSETRNSKKRLLPPLGNTPEELIQTKVPKVGRVERKMSRNNKVSIFPKVDS
B7: hGPR176: N4D (protein)
parent chain: MGHNGSWISPNASEPHNASGAEAAGVNRSALGEFGEAQLYRQFTTTVQVVIFIGSLLGNFMVLWSTCRTTVFKSVTNRFIKNLACSGICASLVCVPFDIILSTSPHCCWWIYTMLFCKVVKFLHKVFCSVTILSFPAIALDRYYSVLYPLERKISDAKSRELVMYIWAHAVVASVPVFAVTNVADIYATSTCTEVWSNSLGHLVYVLVYNITTVIVPVVVVFLFLILIRRALSASQKKKVIIAALRTPQNTISIPYASQREAELHATLLSMVMVFILCSVPYATLVVYQTVLNVPDTSVFLLLTAVWLPKVSLLANPVLFLTVNKSVRKCLIGTLVQLHHRYSRRNVVSTGSGMAEASLEPSIRSGSQLLEMFHIGQQQIFKPTEDEEESEAKYIGSADFQAKEIFSTCLEGEQGPQFAPSAPPLSTVDSVSQVAPAAPVEPETFPDKYSLQFGFGPFELPPQWLSETRNSKKRLLPPLGNTPEELIQTKVPKVGRVERKMSRNNKVSIFPKVDS
B8: hGPR176: N17T (protein)
parent chain: MGHNGSWISPNASEPHNASGAEAAGVNRSALGEFGEAQLYRQFTTTVQVVIFIGSLLGNFMVLWSTCRTTVFKSVTNRFIKNLACSGICASLVCVPFDIILSTSPHCCWWIYTMLFCKVVKFLHKVFCSVTILSFPAIALDRYYSVLYPLERKISDAKSRELVMYIWAHAVVASVPVFAVTNVADIYATSTCTEVWSNSLGHLVYVLVYNITTVIVPVVVVFLFLILIRRALSASQKKKVIIAALRTPQNTISIPYASQREAELHATLLSMVMVFILCSVPYATLVVYQTVLNVPDTSVFLLLTAVWLPKVSLLANPVLFLTVNKSVRKCLIGTLVQLHHRYSRRNVVSTGSGMAEASLEPSIRSGSQLLEMFHIGQQQIFKPTEDEEESEAKYIGSADFQAKEIFSTCLEGEQGPQFAPSAPPLSTVDSVSQVAPAAPVEPETFPDKYSLQFGFGPFELPPQWLSETRNSKKRLLPPLGNTPEELIQTKVPKVGRVERKMSRNNKVSIFPKVDS
B9: hGPR176: S13G (protein)
parent chain: MGHNGSWISPNASEPHNASGAEAAGVNRSALGEFGEAQLYRQFTTTVQVVIFIGSLLGNFMVLWSTCRTTVFKSVTNRFIKNLACSGICASLVCVPFDIILSTSPHCCWWIYTMLFCKVVKFLHKVFCSVTILSFPAIALDRYYSVLYPLERKISDAKSRELVMYIWAHAVVASVPVFAVTNVADIYATSTCTEVWSNSLGHLVYVLVYNITTVIVPVVVVFLFLILIRRALSASQKKKVIIAALRTPQNTISIPYASQREAELHATLLSMVMVFILCSVPYATLVVYQTVLNVPDTSVFLLLTAVWLPKVSLLANPVLFLTVNKSVRKCLIGTLVQLHHRYSRRNVVSTGSGMAEASLEPSIRSGSQLLEMFHIGQQQIFKPTEDEEESEAKYIGSADFQAKEIFSTCLEGEQGPQFAPSAPPLSTVDSVSQVAPAAPVEPETFPDKYSLQFGFGPFELPPQWLSETRNSKKRLLPPLGNTPEELIQTKVPKVGRVERKMSRNNKVSIFPKVDS

Assays:
[1] = confocal GFP imaging with ER-Tracker; details: glycan lost; control: wild type Gpr176-GFP
[2] = immunoblot after MG132 or bafilomycin A1, 6 h; details: glycan lost; control: wild type Gpr176-GFP
[3] = immunoblot densitometry, Dox-induced Flp-In TREx293; details: glycan lost; for expression_or_secretion, percent_of_wt: control: wild type; for expression_or_secretion: control: wild type hGPR176
[4] = immunoblot of PNGase F-treated live cells; details: glycan lost; control: cells without PNGase F

| Protein | expression_or_secretion [3] | other results |
| --- | --- | --- |
| B1 | – | localisation_or_trafficking [1]: changes; degradation_or_half_life [2]: decreases; expression_or_secretion, percent_of_wt [3]: decreases |
| B2 | – | expression_or_secretion, percent_of_wt [3]: decreases |
| B3 | – | expression_or_secretion [4]: no change |
| B4 | decreases | – |
| B5 | decreases | – |
| B6 | no change | – |
| B7 | no change | – |
| B8 | no change | – |
| B9 | decreases | – |
